B1: Ras GTPase-activating protein 1, residues 281 to 341; numbered along this chain, P20936 (parent)
chain: RRRVRAILPYTKVPDTDEISFLKGDMFIVHNELEDGWMWVTNLRTDEQGLIVEDLVEEVGR
B2: Transcriptional regulator ERG, residues 117 to 197; numbered along this chain, P11308 (parent)
chain: NMTTNERRVIVPADPTLWSTDHVRQWLEWAVKEYGLPDVNILLFQNIDGKELCKMTKDDFQRLTPSYNADILLSHLHYLRE

Variants of: B1
Assay: abundance fitness (aPCA) (normalised: wild type 0, dead -1); higher = more abundant; growth selection in yeast, the domain comes from the species named
Conditions: Homo sapiens

Abundance fitness of substitutions, site by site:
D35: N -0.025 | Q 0.007 | T -0.098 | L -0.207 | C -0.163
L55: A 0.032 | V -0.175 | S -0.018 | Q -0.033 | R -0.034 | D -0.394 | N -0.02
V29: Y -0.879 | I -0.057 | N -0.823 | L -0.473 | Q -0.954
D25: P -0.664 | H -0.895 | R -0.997 | W -1.11 | V -0.904 | A -0.949
P14: E -0.06 | F -0.348 | D -0.023 | R -0.132 | K -0.011
M38: Y -0.188 | K -0.414 | P -0.867 | G -0.78
E18: V -0.369 | L -0.35 | N -0.809 | H -0.452 | I -0.35
L22: D -0.045 | G -0.229 | I 0.001 | Y -0.102
R3: K -0.01 | G -0.383 | W -0.378 | N -0.126 | M -0.158 | H -0.096 | D -0.514 | I -0.073
R5: L -0.256 | H -0.398
D54: K 0.037 | V -0.233 | Y -0.183 | E -0.069
F21: S -0.908 | G -0.914 | V -0.478 | P -0.939 | K -0.988
V4: M -0.074 | E -0.929 | R -0.631 | K -0.626 | L -0.055 | G -0.901
R61: F 0.021 | A 0.067 | D 0.039
R44: D -0.885 | I -0.774
E47: H -0.253 | Y -0.77 | C -0.192 | P -0.993
R1: Y 0.018 | G -0.098 | F 0.06 | L -0.067
R2: E 0.007 | T -0.128

Variants of: B2
Assay: as above
Conditions: Homo sapiens

Abundance fitness of substitutions, site by site:
L76: R -0.944 | Y -0.663 | S -0.576 | V -0.105 | W -0.411
R80: K -0.004 | C 0.178 | V -0.046 | N 0.193 | S -0.109 | F 0.003 | G -0.152 | H 0.068 | M 0.038 | Q 0.071 | E -0.166 | A 0.021 | Y -0.466 | P -0.01
E81: M -0.301 | N 0.557 | V -0.155 | F -0.339 | A -0.03 | L 0.076 | G 0.138 | D 0.102 | I -0.152 | Y -0.058 | Q 0.016 | P -0.107 | C -0.05 | H 0.108 | W -0.32
L79: V 0.046 | I 0.061 | C 0.114 | Y -0.454 | Q -0.007 | H -0.076 | K -0.014 | E -0.054 | T 0.021 | M 0.179 | G -0.195 | R -0.002 | S -0.141 | F -0.215 | N -0.259 | P -0.19 | D -0.106
Y78: A 0.181 | I 0.034 | G 0.203 | N 0.305 | T 0.173 | L 0.12 | P -0.033 | W -0.22 | S 0.148 | E 0.247 | Q 0.2 | M 0.163 | C 0.029 | F -0.087 | D 0.228 | K 0.103 | V 0.071 | H -0.119
H77: S -0.026 | N 0.112 | W -0.166 | M -0.24 | K 0.044 | L -0.087 | I 0.142 | Q -0.098 | R 0.052 | A 0.034 | Y -0.295 | G 0.194 | V -0.072 | D -0.128 | F -0.226 | T -0.119 | E 0.099
